B1: Storkhead-box protein 2, residues 64 to 141; numbered along this chain, Q9P2F5 (parent)
chain: SPISQSQFIPLGEILCLAISAMNSARKPVTQEALMEHLTTCFPGVPTPSQEILRHTLNTLVRERKIYPTPDGYFIVTP

± gives the uncertainty stated by the source.

In the data set the parent is B1. Put plainly: abundance fitness (aPCA) (normalised: wild type 0, dead -1); higher = more abundant; growth selection in yeast, the domain comes from the species named. The settings on record: Homo sapiens.
Consider YPISQSQFIPLGEILCLAISAMNSARKPVTQEALMEHLTTCFPGVPTPSQEILRHTLNTLVRERKIYPTPDGYFIVTP [S1Y], for which the abundance fitness is -0.122 ± 0.093.

Regarding SIISQSQFIPLGEILCLAISAMNSARKPVTQEALMEHLTTCFPGVPTPSQEILRHTLNTLVRERKIYPTPDGYFIVTP [P2I], the abundance fitness is -0.037 ± 0.14.

For the variant SYISQSQFIPLGEILCLAISAMNSARKPVTQEALMEHLTTCFPGVPTPSQEILRHTLNTLVRERKIYPTPDGYFIVTP [P2Y], the abundance fitness worked out at 0.107 ± 0.1.

Take SEISQSQFIPLGEILCLAISAMNSARKPVTQEALMEHLTTCFPGVPTPSQEILRHTLNTLVRERKIYPTPDGYFIVTP [P2E]: the abundance fitness is -0.18 ± 0.08.

Regarding SLISQSQFIPLGEILCLAISAMNSARKPVTQEALMEHLTTCFPGVPTPSQEILRHTLNTLVRERKIYPTPDGYFIVTP [P2L], the abundance fitness came to 0.046 ± 0.047.

Regarding SWISQSQFIPLGEILCLAISAMNSARKPVTQEALMEHLTTCFPGVPTPSQEILRHTLNTLVRERKIYPTPDGYFIVTP [P2W], the abundance fitness is -0.102 ± 0.07.

As for SGISQSQFIPLGEILCLAISAMNSARKPVTQEALMEHLTTCFPGVPTPSQEILRHTLNTLVRERKIYPTPDGYFIVTP [P2G], the abundance fitness was -0.095 ± 0.042.

Turning to SMISQSQFIPLGEILCLAISAMNSARKPVTQEALMEHLTTCFPGVPTPSQEILRHTLNTLVRERKIYPTPDGYFIVTP [P2M], the abundance fitness amounted to 0.013 ± 0.065.

For SVISQSQFIPLGEILCLAISAMNSARKPVTQEALMEHLTTCFPGVPTPSQEILRHTLNTLVRERKIYPTPDGYFIVTP [P2V], the abundance fitness came out at 0.001 ± 0.052.

SQISQSQFIPLGEILCLAISAMNSARKPVTQEALMEHLTTCFPGVPTPSQEILRHTLNTLVRERKIYPTPDGYFIVTP [P2Q]: the abundance fitness is 0.103 ± 0.067.

As for SKISQSQFIPLGEILCLAISAMNSARKPVTQEALMEHLTTCFPGVPTPSQEILRHTLNTLVRERKIYPTPDGYFIVTP [P2K], the abundance fitness is -0.137 ± 0.081.

With SSISQSQFIPLGEILCLAISAMNSARKPVTQEALMEHLTTCFPGVPTPSQEILRHTLNTLVRERKIYPTPDGYFIVTP [P2S], the abundance fitness is 0.002 ± 0.051.

Turning to SNISQSQFIPLGEILCLAISAMNSARKPVTQEALMEHLTTCFPGVPTPSQEILRHTLNTLVRERKIYPTPDGYFIVTP [P2N], the abundance fitness amounted to 0.188 ± 0.17.

In the case of SRISQSQFIPLGEILCLAISAMNSARKPVTQEALMEHLTTCFPGVPTPSQEILRHTLNTLVRERKIYPTPDGYFIVTP [P2R], the abundance fitness amounted to 0.019 ± 0.029.

Turning to SAISQSQFIPLGEILCLAISAMNSARKPVTQEALMEHLTTCFPGVPTPSQEILRHTLNTLVRERKIYPTPDGYFIVTP [P2A], the abundance fitness was -0.084 ± 0.055.

Consider SHISQSQFIPLGEILCLAISAMNSARKPVTQEALMEHLTTCFPGVPTPSQEILRHTLNTLVRERKIYPTPDGYFIVTP [P2H], for which the abundance fitness was found to be 0.051 ± 0.12.

For the variant SDISQSQFIPLGEILCLAISAMNSARKPVTQEALMEHLTTCFPGVPTPSQEILRHTLNTLVRERKIYPTPDGYFIVTP [P2D], the abundance fitness came to 0.124 ± 0.095.

Take SCISQSQFIPLGEILCLAISAMNSARKPVTQEALMEHLTTCFPGVPTPSQEILRHTLNTLVRERKIYPTPDGYFIVTP [P2C]: the abundance fitness was -0.15 ± 0.14.

For the variant SPIVQSQFIPLGEILCLAISAMNSARKPVTQEALMEHLTTCFPGVPTPSQEILRHTLNTLVRERKIYPTPDGYFIVTP [S4V], the abundance fitness is -0.056 ± 0.042.

Consider SPIPQSQFIPLGEILCLAISAMNSARKPVTQEALMEHLTTCFPGVPTPSQEILRHTLNTLVRERKIYPTPDGYFIVTP [S4P], for which the abundance fitness came out at 0.007 ± 0.045.

Take SPIWQSQFIPLGEILCLAISAMNSARKPVTQEALMEHLTTCFPGVPTPSQEILRHTLNTLVRERKIYPTPDGYFIVTP [S4W]: the abundance fitness was -0.161 ± 0.061.

Turning to SPIGQSQFIPLGEILCLAISAMNSARKPVTQEALMEHLTTCFPGVPTPSQEILRHTLNTLVRERKIYPTPDGYFIVTP [S4G], the abundance fitness is -0.17 ± 0.032.

For SPILQSQFIPLGEILCLAISAMNSARKPVTQEALMEHLTTCFPGVPTPSQEILRHTLNTLVRERKIYPTPDGYFIVTP [S4L], the abundance fitness is -0.026 ± 0.041.

Turning to SPIIQSQFIPLGEILCLAISAMNSARKPVTQEALMEHLTTCFPGVPTPSQEILRHTLNTLVRERKIYPTPDGYFIVTP [S4I], the abundance fitness is -0.079 ± 0.073.

Regarding SPINQSQFIPLGEILCLAISAMNSARKPVTQEALMEHLTTCFPGVPTPSQEILRHTLNTLVRERKIYPTPDGYFIVTP [S4N], the abundance fitness is -0.038 ± 0.1.

For SPIDQSQFIPLGEILCLAISAMNSARKPVTQEALMEHLTTCFPGVPTPSQEILRHTLNTLVRERKIYPTPDGYFIVTP [S4D], the abundance fitness was found to be 0.104 ± 0.093.

Regarding SPITQSQFIPLGEILCLAISAMNSARKPVTQEALMEHLTTCFPGVPTPSQEILRHTLNTLVRERKIYPTPDGYFIVTP [S4T], the abundance fitness was -0.006 ± 0.046.

In the case of SPIFQSQFIPLGEILCLAISAMNSARKPVTQEALMEHLTTCFPGVPTPSQEILRHTLNTLVRERKIYPTPDGYFIVTP [S4F], the abundance fitness is -0.151 ± 0.052.

As for SPIHQSQFIPLGEILCLAISAMNSARKPVTQEALMEHLTTCFPGVPTPSQEILRHTLNTLVRERKIYPTPDGYFIVTP [S4H], the abundance fitness came to 0.008 ± 0.11.

For SPIAQSQFIPLGEILCLAISAMNSARKPVTQEALMEHLTTCFPGVPTPSQEILRHTLNTLVRERKIYPTPDGYFIVTP [S4A], the abundance fitness is -0.098 ± 0.039.

As to SPIRQSQFIPLGEILCLAISAMNSARKPVTQEALMEHLTTCFPGVPTPSQEILRHTLNTLVRERKIYPTPDGYFIVTP [S4R], the abundance fitness is -0.155 ± 0.043.

For the variant SPIKQSQFIPLGEILCLAISAMNSARKPVTQEALMEHLTTCFPGVPTPSQEILRHTLNTLVRERKIYPTPDGYFIVTP [S4K], the abundance fitness is -0.154 ± 0.093.

For the variant SPIYQSQFIPLGEILCLAISAMNSARKPVTQEALMEHLTTCFPGVPTPSQEILRHTLNTLVRERKIYPTPDGYFIVTP [S4Y], the abundance fitness is -0.076 ± 0.071.

As for SPICQSQFIPLGEILCLAISAMNSARKPVTQEALMEHLTTCFPGVPTPSQEILRHTLNTLVRERKIYPTPDGYFIVTP [S4C], the abundance fitness is -0.013 ± 0.068.

Consider SPIMQSQFIPLGEILCLAISAMNSARKPVTQEALMEHLTTCFPGVPTPSQEILRHTLNTLVRERKIYPTPDGYFIVTP [S4M], for which the abundance fitness was determined as 0.002 ± 0.066.

The record behind these values is the Human Domainome abundance scans (Beltran et al. 2025).
